Measurements as given in patent publication US20200325187A1 (Genentech, published 2020).
Like-named read-outs stand apart in the source and are kept apart here.

How the values were obtained:
hVEGF-A [1] = target: T1, hVEGF-A (human, UniProt P15692-4 27-191, limits assumed); assay: KDR-VEGF competition ELISA
T1 construct: also called human VEGF-A; WT

EGF = EGF (human, UniProt P01133 971-1023); assay: competition ELISA: EGF coated, constant EGFR receptor, peptide titrated
human VEGF-A 165 [2] = target: T2, human VEGF-A 165 (human, UniProt P15692-4 27-191); assay: SPR
Procedure: (§1) Depending on the format of the assay either a streptavidin sensor (SA) or a dextran-coated (CM5) sensor was utilized as described below.
(§2) Reaction was then quenched by addition of 10 molar excess of Glycine pH 8.0 and the sample was buffer exchanged into PBS using an Amicon 0.5 mL 3000 MWCO ultra-centrifugal filters (EMD Millipore). The biotinylation state of the protein was verified by LC-MS analysis. Biotinylated VEGF-A was then captured on the surface until a resonance unit (RU) signal of about ˜400. For immobilization of VEGF-A on CM5 sensor, the surface was first activated with a mixture of N-ethyl-N′-(3-dimethylaminopropyl)carbodiimide hydrochloride and N-hydroxysuccinimide (EDC/NHS) according to the supplier instructions. VEGF-A was then diluted into coupling buffer (0.1 M Acetate Buffer, pH 5.0) and injected until the signal reached about ˜400 RU followed by a wash with 1 M ethanolamine pH 8.0 to quench remaining activated sites.
Target sequence in this assay (P15692 other isoform, or with tags, fused parts or gaps limits assumed): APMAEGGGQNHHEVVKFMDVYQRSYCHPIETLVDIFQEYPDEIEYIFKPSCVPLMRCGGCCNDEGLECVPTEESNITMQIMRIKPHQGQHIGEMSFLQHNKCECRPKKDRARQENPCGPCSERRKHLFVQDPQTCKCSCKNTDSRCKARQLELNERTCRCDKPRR

rat VEGF-A = target: T3, rat VEGF-A (rat, UniProt P16612-2 27-190, limits assumed); assay: SPR
T3 construct: also called rVEGF
T3 sequence (looked up): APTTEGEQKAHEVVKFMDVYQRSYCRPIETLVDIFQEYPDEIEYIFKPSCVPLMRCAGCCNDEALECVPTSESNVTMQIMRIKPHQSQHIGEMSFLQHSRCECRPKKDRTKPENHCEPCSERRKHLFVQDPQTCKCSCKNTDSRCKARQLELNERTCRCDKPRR
Procedure: as §1, §2

hVEGF-A [3] = target: T1, hVEGF-A; assay: cell-based or functional assay
hVEGF-A (8-109) [4] = target: T4, hVEGF-A (8-109) (human, UniProt P15692 214-315); assay: competition ELISA: VEGF-A (8-109) coated, constant Flt-1 receptor, peptide titrated; blocked ligand: Flt-1
T4 sequence (looked up): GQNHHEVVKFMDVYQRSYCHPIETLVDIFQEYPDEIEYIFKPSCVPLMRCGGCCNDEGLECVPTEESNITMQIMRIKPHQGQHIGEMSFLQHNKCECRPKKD
Procedure: (§3) Binding specificity of each peptide was established by competition ELISA. […] After blocking with block buffer (PBS with 0.5% BSA and 0.05% TWEEN®20) for 2 hours at room temperature, the receptor-Fc fusions or biotinylated receptors were serially diluted using assay buffer (PBS with 0.5% BSA and 0.05% TWEEN®20) and incubated for 1 hour at room temperature. […] Competition ELISA was conducted in an identical fashion as described above except after blocking, a mixture of serially diluted peptide containing a constant concentration of receptor-Fc fusion or biotinylated receptor (concentration of receptor was set to EC₆₀) was added and incubated for 1 hour. All recombinant human proteins and antibodies were purchased from R &D Systems (Minneapolis, Minn.).

hVEGF-A [5] = target: T1, hVEGF-A; assay: SPR
human VEGF-A 165 [6] = target: T2, human VEGF-A 165; assay: competition ELISA: VEGF-A 165 coated, constant KDR receptor, peptide titrated; blocked ligand: KDR
Procedure: as §3

PIGF-2 = target: T5, PIGF-2 (human, UniProt P49763-3 19-170); assay: competition ELISA: PIGF-2 coated, constant Flt-1 receptor, peptide titrated
T5 construct: also called P1Gf-2; P1GF
T5 sequence (looked up): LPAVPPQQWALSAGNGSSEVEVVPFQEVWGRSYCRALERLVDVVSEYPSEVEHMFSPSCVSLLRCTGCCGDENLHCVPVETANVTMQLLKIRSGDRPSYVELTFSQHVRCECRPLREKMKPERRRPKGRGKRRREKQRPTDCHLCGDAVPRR

hVEGF-A (8-109) [7] = target: T4, hVEGF-A (8-109); assay: competition ELISA: VEGF-A (8-109) coated, constant KDR receptor, peptide titrated; blocked ligand: KDR
Procedure: as §3

VEGF-D = target: T6, VEGF-D (human, UniProt O43915 93-201, limits assumed); assay: competition ELISA: VEGF-D coated, constant Flt-4 receptor, peptide titrated
T6 sequence (looked up): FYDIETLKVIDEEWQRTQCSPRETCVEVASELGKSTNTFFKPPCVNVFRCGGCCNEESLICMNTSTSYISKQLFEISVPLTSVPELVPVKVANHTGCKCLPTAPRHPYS

hVEGF-A [8] = target: T1, hVEGF-A; assay: cell-based or functional assay; remark: listed apart in the source
IGF-1 = IGF-1 (human, UniProt P05019 49-118); assay: competition ELISA: IGF coated, constant IGFR receptor, peptide titrated
hVEGF-A [9] = target: T1, hVEGF-A; assay: cell-based or functional assay; remark: listed apart in the source
NGF = NGF (human, UniProt P01138 122-241, limits assumed); assay: competition ELISA: NGF coated, constant NGFR receptor, peptide titrated
human VEGF-A 165 [10] = target: T2, human VEGF-A 165; assay: competition ELISA: VEGF-A 165 coated, constant KDR receptor, peptide titrated; blocked ligand: KDR; remark: listed apart in the source
Procedure: as §3
Target sequence in this assay (P15692 other isoform, or with tags, fused parts or gaps limits assumed): as the sequence (P15692 other isoform, or with tags, fused parts or gaps limits assumed) above

hVEGF-A (8-109) [11] = target: T4, hVEGF-A (8-109); assay: competition ELISA: VEGF-A (8-109) coated, constant Flt-1 receptor, peptide titrated; blocked ligand: Flt-1; remark: listed apart in the source
Procedure: as §3

NGF, sequence (P01138 122-241 limits assumed): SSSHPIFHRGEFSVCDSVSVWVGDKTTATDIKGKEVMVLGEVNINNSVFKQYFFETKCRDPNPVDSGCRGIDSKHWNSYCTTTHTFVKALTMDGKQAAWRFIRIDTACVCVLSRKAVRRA
EGF, sequence (P01133 971-1023 limits assumed): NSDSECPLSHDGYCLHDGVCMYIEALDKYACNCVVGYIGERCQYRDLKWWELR

B1: VEGF_CKP9.54.90 (designed binder)
chain: GCNIMLPFWGCGRDFECLAGCVCQYYQSCG
With B1 the IC50 (hVEGF-A [1]) was 0.2 nM, the binding result (EGF) was “no binding (tested: 5 µM)” and the Kd (human VEGF-A 165 [2]) was 0.89 nM. The Kd (rat VEGF-A) was 0.9 nM, the “Cellular IC50” value (hVEGF-A [3]) was 1.35 nM and the “IC50 (read off the curve)” value (hVEGF-A (8-109) [4]) was ~70 nM. For the same binder, the Kd (hVEGF-A [5]) was 0.4 nM, the “IC50 (read off the curve)” value (human VEGF-A 165 [6]) was ~30 nM and the binding result (PIGF-2) was “no binding (tested: 5 µM)”. For the same binder, the “IC50 (read off the curve)” value (hVEGF-A (8-109) [7]) was ~20 nM, the binding result (VEGF-D) was “no binding (tested: 5 µM)” and the “IC50 (read off the curve)” value (hVEGF-A [8]) was ~60 nM. The binding result (IGF-1) was “no binding (tested: 5 µM)”, the “Cellular IC50” value (hVEGF-A [9]) was 1.35 nM and the “FOLD [..] [..] TO VARIANT 9.54.90” value (hVEGF-A [9]) was 1 fold. For the same binder, the binding result (NGF) was “no binding (tested: 5 µM)”, the “IC50 (read off the curve)” value (human VEGF-A 165 [10]) was ~30 nM and the “IC50 (read off the curve)” value (hVEGF-A (8-109) [11]) was ~70 nM.
